Data from patent US20230250154A1 (CYTONICS, published 2023).
Values belong to the binder of their own block, whether it stands above or below them.

Tests used:
Test in all cases: cell-based or functional assay
[1] = target: T1, MMP2 (human, UniProt P08253 110-660, limits assumed)
T1 sequence (looked up): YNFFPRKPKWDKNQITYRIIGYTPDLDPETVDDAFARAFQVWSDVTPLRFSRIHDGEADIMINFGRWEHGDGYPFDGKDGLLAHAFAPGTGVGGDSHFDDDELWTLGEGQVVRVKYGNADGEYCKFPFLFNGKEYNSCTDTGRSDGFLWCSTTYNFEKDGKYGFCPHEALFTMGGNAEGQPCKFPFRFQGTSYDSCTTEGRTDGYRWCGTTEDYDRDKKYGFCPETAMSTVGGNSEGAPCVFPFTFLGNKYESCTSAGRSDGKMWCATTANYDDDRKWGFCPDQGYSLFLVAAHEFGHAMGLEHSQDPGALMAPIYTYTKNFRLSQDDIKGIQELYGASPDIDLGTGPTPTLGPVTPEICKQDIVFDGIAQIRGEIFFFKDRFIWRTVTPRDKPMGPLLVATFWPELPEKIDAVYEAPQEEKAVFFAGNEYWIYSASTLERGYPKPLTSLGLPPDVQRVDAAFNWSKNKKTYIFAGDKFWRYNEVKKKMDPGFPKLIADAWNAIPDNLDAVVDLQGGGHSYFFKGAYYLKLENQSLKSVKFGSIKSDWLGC

[2] = target: T2, ADAMTS4 (human, UniProt O75173 213-685, limits assumed)
T2 sequence (looked up): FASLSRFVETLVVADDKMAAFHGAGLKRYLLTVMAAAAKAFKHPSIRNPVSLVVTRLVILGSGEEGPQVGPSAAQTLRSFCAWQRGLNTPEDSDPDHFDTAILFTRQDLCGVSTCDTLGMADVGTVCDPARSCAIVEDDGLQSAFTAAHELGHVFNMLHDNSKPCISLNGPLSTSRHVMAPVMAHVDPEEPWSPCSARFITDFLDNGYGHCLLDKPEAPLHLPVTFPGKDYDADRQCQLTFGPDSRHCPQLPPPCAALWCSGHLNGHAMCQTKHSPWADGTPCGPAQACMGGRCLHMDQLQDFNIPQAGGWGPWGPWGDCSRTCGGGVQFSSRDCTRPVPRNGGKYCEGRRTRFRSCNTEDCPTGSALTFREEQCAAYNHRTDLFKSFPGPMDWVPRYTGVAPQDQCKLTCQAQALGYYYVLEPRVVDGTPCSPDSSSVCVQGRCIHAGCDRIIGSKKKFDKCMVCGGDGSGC

[3] = target: MMP9 (human, UniProt P14780 107-707, limits assumed)
[4] = target: Elastase
[5] = target: MMP13 (human, UniProt P45452 104-471, limits assumed)
[6] = target: T3, MMP1 (human, UniProt P03956 100-469, limits assumed)
T3 sequence (looked up): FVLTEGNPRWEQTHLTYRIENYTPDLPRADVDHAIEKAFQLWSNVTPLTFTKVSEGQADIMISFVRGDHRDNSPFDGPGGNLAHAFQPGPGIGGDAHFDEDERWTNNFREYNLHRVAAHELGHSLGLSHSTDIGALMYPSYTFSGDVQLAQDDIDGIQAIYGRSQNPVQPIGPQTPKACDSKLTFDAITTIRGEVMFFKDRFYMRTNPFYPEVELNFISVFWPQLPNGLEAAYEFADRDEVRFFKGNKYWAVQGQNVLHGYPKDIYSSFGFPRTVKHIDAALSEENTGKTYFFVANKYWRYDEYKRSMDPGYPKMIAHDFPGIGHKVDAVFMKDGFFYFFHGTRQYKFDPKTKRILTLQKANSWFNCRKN

[7] = target: T4, ADAMTS5 (human, UniProt Q9UNA0 262-622, limits assumed)
T4 sequence (looked up): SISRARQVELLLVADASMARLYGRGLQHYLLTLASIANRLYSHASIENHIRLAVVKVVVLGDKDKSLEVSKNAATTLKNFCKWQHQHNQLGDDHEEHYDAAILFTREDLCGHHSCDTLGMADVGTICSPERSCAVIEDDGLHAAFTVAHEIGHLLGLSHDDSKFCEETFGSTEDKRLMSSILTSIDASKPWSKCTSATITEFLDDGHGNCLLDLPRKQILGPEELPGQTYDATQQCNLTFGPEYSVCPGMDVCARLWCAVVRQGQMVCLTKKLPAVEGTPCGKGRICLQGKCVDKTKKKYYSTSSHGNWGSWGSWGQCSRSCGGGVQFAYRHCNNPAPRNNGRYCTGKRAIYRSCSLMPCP

[8] = target: MMP3 (human, UniProt P08254 100-477, limits assumed)
[9] = target: MMP8 (human, UniProt P22894 101-467, limits assumed)
[10] = target: T5, Cathepsin G (UniProt P08311 21-244)
T5 sequence (looked up): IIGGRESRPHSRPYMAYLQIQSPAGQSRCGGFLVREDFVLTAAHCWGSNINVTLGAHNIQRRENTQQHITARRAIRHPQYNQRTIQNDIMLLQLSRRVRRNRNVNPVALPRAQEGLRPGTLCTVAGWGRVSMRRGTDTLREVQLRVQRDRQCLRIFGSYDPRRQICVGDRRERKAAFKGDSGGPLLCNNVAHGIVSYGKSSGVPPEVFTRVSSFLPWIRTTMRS

[11] = target: T6, MMP7 (UniProt P09237 95-267, limits assumed)
T6 sequence (looked up): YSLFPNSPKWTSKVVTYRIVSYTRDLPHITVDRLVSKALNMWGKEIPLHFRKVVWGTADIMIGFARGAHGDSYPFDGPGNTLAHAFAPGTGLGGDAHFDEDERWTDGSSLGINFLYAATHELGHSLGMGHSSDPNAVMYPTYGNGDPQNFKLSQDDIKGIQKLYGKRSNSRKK

Chain of MMP9 (P14780 107-707 limits assumed): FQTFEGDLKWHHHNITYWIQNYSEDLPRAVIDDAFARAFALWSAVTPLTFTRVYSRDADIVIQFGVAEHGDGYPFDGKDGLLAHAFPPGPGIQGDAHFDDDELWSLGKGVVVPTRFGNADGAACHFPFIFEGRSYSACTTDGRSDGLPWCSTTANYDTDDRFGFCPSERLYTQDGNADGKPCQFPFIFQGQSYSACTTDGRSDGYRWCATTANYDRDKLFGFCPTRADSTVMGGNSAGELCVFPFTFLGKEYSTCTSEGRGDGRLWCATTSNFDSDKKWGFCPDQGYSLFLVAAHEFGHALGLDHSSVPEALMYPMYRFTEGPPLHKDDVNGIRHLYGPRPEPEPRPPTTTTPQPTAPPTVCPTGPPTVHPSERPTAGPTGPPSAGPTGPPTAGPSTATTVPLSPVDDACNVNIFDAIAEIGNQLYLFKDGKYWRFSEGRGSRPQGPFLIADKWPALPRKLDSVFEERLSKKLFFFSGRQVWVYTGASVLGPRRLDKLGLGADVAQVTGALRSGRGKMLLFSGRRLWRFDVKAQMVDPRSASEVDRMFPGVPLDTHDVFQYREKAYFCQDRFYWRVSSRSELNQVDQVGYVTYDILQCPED
Chain of MMP8 (P22894 101-467 limits assumed): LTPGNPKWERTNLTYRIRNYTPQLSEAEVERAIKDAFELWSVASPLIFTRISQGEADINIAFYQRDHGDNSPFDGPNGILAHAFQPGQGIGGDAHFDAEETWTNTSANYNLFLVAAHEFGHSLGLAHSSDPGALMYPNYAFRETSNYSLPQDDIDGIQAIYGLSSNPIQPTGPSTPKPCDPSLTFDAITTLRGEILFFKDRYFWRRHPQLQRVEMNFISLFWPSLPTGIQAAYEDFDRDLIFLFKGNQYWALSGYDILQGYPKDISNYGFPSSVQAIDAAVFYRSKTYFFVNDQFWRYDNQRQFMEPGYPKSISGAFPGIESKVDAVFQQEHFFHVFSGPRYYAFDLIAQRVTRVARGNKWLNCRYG
Chain of MMP3 (P08254 100-477 limits assumed): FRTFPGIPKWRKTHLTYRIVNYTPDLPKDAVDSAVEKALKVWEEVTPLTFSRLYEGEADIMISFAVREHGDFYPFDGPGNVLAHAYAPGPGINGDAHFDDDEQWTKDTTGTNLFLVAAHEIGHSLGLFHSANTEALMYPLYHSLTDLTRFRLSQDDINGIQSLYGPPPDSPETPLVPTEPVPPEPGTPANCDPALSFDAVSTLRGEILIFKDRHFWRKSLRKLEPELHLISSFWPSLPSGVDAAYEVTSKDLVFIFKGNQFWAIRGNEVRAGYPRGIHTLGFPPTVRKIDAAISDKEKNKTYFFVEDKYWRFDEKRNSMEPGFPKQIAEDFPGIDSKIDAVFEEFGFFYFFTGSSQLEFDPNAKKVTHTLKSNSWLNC

- Protease Inhibition (% of WT) [1]: 3 % of WT
- Protease Inhibition (% of WT) [2]: 93 % of WT
- Protease Inhibition (% of WT) [3]: 18 % of WT
- Protease Inhibition (% of WT) [4]: 55 % of WT
- Protease Inhibition (% of WT) [5]: 96 % of WT
- Protease Inhibition (% of WT) [6]: 67 % of WT
- Protease Inhibition (% of WT) [7]: 296 % of WT
- Protease Inhibition (% of WT) [8]: < 100 % of WT
- Protease Inhibition (% of WT) [9]: 29 % of WT
- Protease Inhibition (% of WT) [10]: 104 % of WT
- Protease Inhibition (% of WT) [11]: 91 % of WT
B1: Variant A2M, bait region SEQ ID NO 30 (other)
chain: SVSGKPQYMVLVPSLLHTETTEKGCVLLSYLNETVTVSASLESVRGNRSLFTDLEAENDVLHCVAFAVPKSSSNEEVMFLTVQVKGPTQEFKKRTTVMVKNEDSLVFVQTDKSIYKPGQTVKFRVVSMDENFHPLNELIPLVYIQDPKGNRIAQWQSFQLEGGLKQFSFPLSSEPFQGSYKVVVQKKSGGRTEHPFTVEEFVLPKFEVQVTVPKIITILEEEMNVSVCGLYTYGKPVPGHVTVSICRKYSDASDCHGEDSQAFCEKFSGQLNSHGCFYQQVKTKVFQLKRKEYEMKLHTEAQIQEEGTVVELTGRQSSEITRTITKLSFVKVDSHFRQGIPFFGQVRLVDGKGVPIPNKVIFIRGNEANYYSNATTDEHGLVQFSINTTNVMGTSLTVRVNYKDRSPCYGYQWVSEEHEEAHHTAYLVFSPSKSFVHLEPMSHELPCGHTQTVQAHYILNGGTLLGLKKLSFYYLIMAKGGIVRTGTHGLLVKQEDMKGHFSISIPVKSDIAPVARLLIYAVLPTGDVIGDSAKYDVENCLANKVDLSFSPSQSLPASHAHLRVTAAPQSVCALRAVDQSVLLMKPDAELSASSVYNLLPEKDLTGFPGPLNDQDDEDCINRHNVYINGITYTPVSSTNEKDMYSFLEDMGLKAFTNSKIRKPKMCPQLEQYEMHGPEGEGEGPRYLTAIPENFFGVSEDLVVQISELEGRGSPHTKLRKYFPETWIWDLVVVNSAGVAEVGVTVPDTITEWKAGAFCLSEDAGLGISSTASLRAFQPFFVELTMPYSVIRGEAFTLKATVLNYLPKCIRVSVQLEASPAFLAVPVEKEQAPHCICANGRQTVSWAVTPKSLGNVNFTVSAEALESQELCGTEVPSVPEHGRKDTVIKPLLVEPEGLEKETTFNSLLCPSGGEVSEELSLKLPPNVVEESARASVSVLGDILGSAMQNTQNLLQMPYGCGEQNMVLFAPNIYVLDYLNETQQLTPEIKSKAIGYLNTGYQRQLNYKHYDGSYSTFGERYGRNQGNTWLTAFVLKTFAQARAYIFIDEAHITQALIWLSQRQKDNGCFRSSGSLLNNAIKGGVEDEVTLSAYITIALLEIPLTVTHPVVRNALFCLESAWKTAQEGDHGSHVYTKALLAYAFALAGNQDKRKEVLKSLNEEAVKKDNSVHWERPQKPKAPVGHFYEPQAPSAEVEMTSYVLLAYLTAQPAPTSEDLTSATNIVKWITKQQNAQGGFSSTQDTVVALHALSKYGAATFTRTGKAAQVTIQSSGTFSSKFQVDNNNRLLLQQVSLPELPGEYSMKVTGEGCVYLQTSLKYNILPEKEEFPFALGVQTLPQTCDEPKAHTSFQISLSVSYTGSRSASNMAIVDVKMVSGFIPLKPTVKMLERSNHVSRTEVSSNHVLIYLDKVSNQTLSLFFTVLQDVPVRDLKPAIVKVYDYYETDEFAIAEYNAPCSKDLGNADYKDDDDKGASHHHHHH

- Protease Inhibition (% of WT) [1]: 27 % of WT
- Protease Inhibition (% of WT) [2]: 124 % of WT
- Protease Inhibition (% of WT) [3]: 20 % of WT
- Protease Inhibition (% of WT) [4]: 93 % of WT
- Protease Inhibition (% of WT) [5]: 88 % of WT
- Protease Inhibition (% of WT) [6]: 67 % of WT
- Protease Inhibition (% of WT) [7]: 145 % of WT
- Protease Inhibition (% of WT) [8]: 27 % of WT
- Protease Inhibition (% of WT) [9]: 33 % of WT
- Protease Inhibition (% of WT) [10]: 66 % of WT
- Protease Inhibition (% of WT) [11]: 80 % of WT
B2: Variant A2M, bait region SEQ ID NO 9 (other)
chain: SVSGKPQYMVLVPSLLHTETTEKGCVLLSYLNETVTVSASLESVRGNRSLFTDLEAENDVLHCVAFAVPKSSSNEEVMFLTVQVKGPTQEFKKRTTVMVKNEDSLVFVQTDKSIYKPGQTVKFRVVSMDENFHPLNELIPLVYIQDPKGNRIAQWQSFQLEGGLKQFSFPLSSEPFQGSYKVVVQKKSGGRTEHPFTVEEFVLPKFEVQVTVPKIITILEEEMNVSVCGLYTYGKPVPGHVTVSICRKYSDASDCHGEDSQAFCEKFSGQLNSHGCFYQQVKTKVFQLKRKEYEMKLHTEAQIQEEGTVVELTGRQSSEITRTITKLSFVKVDSHFRQGIPFFGQVRLVDGKGVPIPNKVIFIRGNEANYYSNATTDEHGLVQFSINTTNVMGTSLTVRVNYKDRSPCYGYQWVSEEHEEAHHTAYLVFSPSKSFVHLEPMSHELPCGHTQTVQAHYILNGGTLLGLKKLSFYYLIMAKGGIVRTGTHGLLVKQEDMKGHFSISIPVKSDIAPVARLLIYAVLPTGDVIGDSAKYDVENCLANKVDLSFSPSQSLPASHAHLRVTAAPQSVCALRAVDQSVLLMKPDAELSASSVYNLLPEKDLTGFPGPLNDQDDEDCINRHNVYINGITYTPVSSTNEKDMYSFLEDMGLKAFTNSKIRKPKMCPQLEHGPEGEGEGEGIPENFFGVPRYLSEDLVVQISELEGRGSVEEPHTKLRKYFPETWIWDLVVVNSAGVAEVGVTVPDTITEWKAGAFCLSEDAGLGISSTASLRAFQPFFVELTMPYSVIRGEAFTLKATVLNYLPKCIRVSVQLEASPAFLAVPVEKEQAPHCICANGRQTVSWAVTPKSLGNVNFTVSAEALESQELCGTEVPSVPEHGRKDTVIKPLLVEPEGLEKETTFNSLLCPSGGEVSEELSLKLPPNVVEESARASVSVLGDILGSAMQNTQNLLQMPYGCGEQNMVLFAPNIYVLDYLNETQQLTPEIKSKAIGYLNTGYQRQLNYKHYDGSYSTFGERYGRNQGNTWLTAFVLKTFAQARAYIFIDEAHITQALIWLSQRQKDNGCFRSSGSLLNNAIKGGVEDEVTLSAYITIALLEIPLTVTHPVVRNALFCLESAWKTAQEGDHGSHVYTKALLAYAFALAGNQDKRKEVLKSLNEEAVKKDNSVHWERPQKPKAPVGHFYEPQAPSAEVEMTSYVLLAYLTAQPAPTSEDLTSATNIVKWITKQQNAQGGFSSTQDTVVALHALSKYGAATFTRTGKAAQVTIQSSGTFSSKFQVDNNNRLLLQQVSLPELPGEYSMKVTGEGCVYLQTSLKYNILPEKEEFPFALGVQTLPQTCDEPKAHTSFQISLSVSYTGSRSASNMAIVDVKMVSGFIPLKPTVKMLERSNHVSRTEVSSNHVLIYLDKVSNQTLSLFFTVLQDVPVRDLKPAIVKVYDYYETDEFAIAEYNAPCSKDLGNADYKDDDDKGASHHHHHH
